The text below walks through data of paper PMC6445550.

The series concerns CCCCCCCCCCCCCCCC(=O)SCCNC(=O)CCNC(=O)[C@H](O)C(C)(C)COP(=O)(O)OP(=O)(O)OC[C@H]1O[C@@H](n2cnc3c(N)ncnc32)[C@H](O)[C@@H]1OP(=O)(O)O. Briefly: purified protein.

Consider zDHHC9 (Homo sapiens), for which the Michaelis-Menten constant (Km) (usually the concentration of substrate that gives half-maximal velocity) was determined as 45 ± 4 µM.
